The assay has as its target T1, Erbin PDZ (UniProt Q96RT1 1321-1410, limits assumed).
T1 construct: domain: PDZ; Isolated PDZ domain without FN3; Expressed in E. coli from a pHFT2 derivative; also called wild-type PDZ domain; parent PDZ
Description: SPR (BIAcore 2000); PDZ immobilised on Ni-NTA chip, SUMO-peptide fusion as analyte. As to the method: Affinity Measurements. SPR measurements were performed in 20 mM HEPES/NaOH buffer (pH 7.4), 150 mM NaCl, and 0.005% Tween 20 at 25° C. on a BIAcore 2000 instrument. The affinity clamp or the linker mutant was immobilized on a Ni-NTA chip to the level of approximate 300 RU, and different concentrations of SUMO-peptide fusion protein were injected. The kinetic data were analyzed using the one-to-one binding model in BIAEvaluation (BIAcore).
(SPR reads the build-up and loss of mass on a sensor chip optically.)

T1 sequence (Q96RT1 1321-1410 limits assumed): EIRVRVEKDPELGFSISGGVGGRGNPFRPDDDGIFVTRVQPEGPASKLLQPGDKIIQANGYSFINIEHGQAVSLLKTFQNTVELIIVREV

B1: SUMO-δ-catenin peptide fusion protein (peptide)
peptide: {yeast SUMO}-PASPDSWV-OH
modifications: not fully specified
notes: The methods say that SUMO-peptide fusion proteins were injected in SPR; also called C-terminus of δ-catenin; not shown: The yeast SUMO fusion partner N-terminal to the peptide, and any junction or tag residues
For the molecule B1, the affinity, expressed as Kd, was 6.3 µM.

B2: SUMO-ARVCF peptide fusion protein (peptide)
chain: PQPVDSWV
notes: Analyte in SPR; also called wild-type ARVCF peptide; AVFCF peptide; not shown: yeast SUMO, fusion partner N-terminal to the peptide
Consider B2, for which the Kd was 2.2 µM.

Broadly, the Kd is the constant that tells how readily two partners part at equilibrium. Lower therefore signals higher affinity.
